Data from article PMC7556864, “The NTP generating activity of pyruvate kinase II is critical for apicoplast maintenance in Plasmodium falciparum” (eLife, 2020).

B1: PyrKII (P. falciparum pyruvate kinase II; His-PyrKII) (Plasmodium falciparum 3D7) (protein)
chain: GSGNGSGDLLFLNNININKNVERKKNILAHSEIGTVRNIDDINLLNHNKKNEISFTKCKQIATIGPASENFEQLEKLYLNGIDVFRLNFSHGLKSIKKYIINSIRILEKKYDTTIGILGDIQGPKIRIGEFEKNQINENDNNTFVELKEGDLFSFDLMNSLGNQNRVQLNYPELIKNAKAGQIILLDDGNLKMKILENNYDTSNIQNSYIKVQVLTGGKLYSKKGFCIPNMIMPIDVLSEKDIKDILFCINEEVDFLGYSFVQTEYDLIFLRNIINDYYESDFYNNIKRKDRINFDQNNLQMKTFDDENDFYIKEVNDYYNNYYLKNVQKYKQIYDVYKNQDLYINDNIQNHYNKNIVTNIGDDKNIIDEQHIHNNNNNNIDNIMKNYSNLYNINKDHNKIAIISKIEKPSAIKNIENIIKLSDGIMIARGDLGIETNLSNLPILQKKLINLCRIKYNKPVIVATQMMESMRFLPSPTRAEVTDVATALYDGSDCVMLSAETATGQYPILTVSTQNKIIKDVENDYYYYEYTQRKNDKLKMLDHKNNCCHENKDIQQINKYNHEYIQNNKYEQDIQNNISYFDKLIFSIRDISNNINLKSIILFSNEFNKIQKLSNLRTKAPIIVITENKYLARKLQLTWGIYPHLSKKQNLFNHDLFSLINYGCDVSKKEGFVNSPDEYSLVTFSKNINSANLLYLCQPCLTN
notes: residues 42-745 (predicted mature protein, apicoplast trafficking peptide removed); synthetic codon-harmonized gene; MBP-TEV-His6 fusion from E. coli BL21 Star (DE3), MBP cut by TEV, N-terminal His6 kept; 83,014 Da

Tests used:
[1] = molecular target: T1, PyrKII (P. falciparum pyruvate kinase II; His-PyrKII) (Plasmodium falciparum, UniProt Q8IJ37); experiment: LDH-coupled spectrophotometric assay, NADH oxidation at […] nm; format: biochemical; conditions: 3 mM ADP, PEP 0-20 mM, 10 mM MgCl2, 50 mM KCl, 26.5 mM Tris-HCl pH 7.5
T1 construct: gene PF3D7_1037100; residues 42-745 (predicted mature protein, apicoplast trafficking peptide removed); synthetic codon-harmonized gene; MBP-TEV-His6 fusion from E. coli BL21 Star (DE3), MBP cut by TEV, N-terminal His6 kept; 83,014 Da
T1 sequence (Q8IJ37 42-745): B1 chain

purified protein [2] = substrate: O=c1ccn([C@@H]2O[C@H](COP(=O)(O)OP(=O)(O)O)[C@@H](O)[C@H]2O)c(=O)[nH]1; experiment: purified protein; format: biochemical, Plasmodium falciparum; conditions: 5 mM PEP, 10 mM MgCl2, 50 mM KCl, 26.5 mM Tris-HCl pH 7.5
purified protein [3] = substrate: Nc1nc2c(ncn2[C@@H]2O[C@H](COP(=O)(O)OP(=O)(O)O)[C@@H](O)[C@H]2O)c(=O)[nH]1; experiment: purified protein; format: biochemical, Plasmodium falciparum; conditions: 5 mM PEP, 10 mM MgCl2, 50 mM KCl, 26.5 mM Tris-HCl pH 7.5
purified protein [4] = substrate: Nc1nc2c(ncn2[C@H]2C[C@H](O)[C@@H](CO[P@](=O)(O)OP(=O)(O)O)O2)c(=O)[nH]1; experiment: purified protein; format: biochemical, Plasmodium falciparum; conditions: 5 mM PEP, 10 mM MgCl2, 50 mM KCl, 26.5 mM Tris-HCl pH 7.5
purified protein [5] = substrate: Nc1ncnc2c1ncn2[C@H]1C[C@H](O)[C@@H](COP(=O)(O)OP(=O)(O)O)O1; experiment: purified protein; format: biochemical, Plasmodium falciparum; conditions: 5 mM PEP, 10 mM MgCl2, 50 mM KCl, 26.5 mM Tris-HCl pH 7.5
purified protein [6] = substrate: Nc1ccn([C@H]2C[C@H](O)[C@@H](COP(=O)(O)OP(=O)(O)O)O2)c(=O)n1; experiment: purified protein; format: biochemical, Plasmodium falciparum; conditions: 5 mM PEP, 10 mM MgCl2, 50 mM KCl, 26.5 mM Tris-HCl pH 7.5
purified protein [7] = substrate: Nc1ccn([C@@H]2O[C@H](COP(=O)(O)OP(=O)(O)O)[C@@H](O)[C@H]2O)c(=O)n1; experiment: purified protein; format: biochemical, Plasmodium falciparum; conditions: 5 mM PEP, 10 mM MgCl2, 50 mM KCl, 26.5 mM Tris-HCl pH 7.5
purified protein [8] = substrate: Nc1ncnc2c1ncn2[C@@H]1O[C@H](COP(=O)(O)OP(=O)(O)O)[C@@H](O)[C@H]1O; experiment: purified protein; format: biochemical, Plasmodium falciparum; conditions: 5 mM PEP, 10 mM MgCl2, 50 mM KCl, 26.5 mM Tris-HCl pH 7.5

Molecule | Km [1] | kcat (purified protein [2]) [s⁻¹] | kcat/Km (purified protein [2]) [M⁻¹ s⁻¹] | kcat (purified protein [3]) [s⁻¹] | kcat/Km (purified protein [3]) [M⁻¹ s⁻¹] | kcat (purified protein [4]) [s⁻¹] | kcat/Km (purified protein [4]) [M⁻¹ s⁻¹] | kcat (purified protein [5]) [s⁻¹] | kcat/Km (purified protein [5]) [M⁻¹ s⁻¹] | kcat (purified protein [6]) [s⁻¹] | kcat/Km (purified protein [6]) [M⁻¹ s⁻¹] | kcat (purified protein [7]) [s⁻¹] | kcat/Km (purified protein [7]) [M⁻¹ s⁻¹] | kcat (purified protein [8]) [s⁻¹] | kcat/Km (purified protein [8]) [M⁻¹ s⁻¹]
C=C(OP(=O)(O)O)C(=O)O [PEP] | 0.64+ / - 0.05 mM | – | – | – | – | – | – | – | – | – | – | – | – | – | –
B1 | – | 4.2 ± 0.667 | 5100 | 6.62 ± 0.75 | 98200 | 1.5 ± 0.0833 | 5300 | 6.68 ± 0.517 | 17800 | 1.3 ± 0.05 | 2480 | 7.3 ± 1.15 | 7200 | 13.2 ± 3.1 | 53300
